Here are results for 3 molecules from patent US20180148477A1 (published 2018).

One may read the Kd as the concentration at which binding is half-saturated. Usually koff stands for a measure of how fast the partners let go of each other. Lower therefore signals slow dissociation. Usually kon stands for a measure of how fast the partners come together. Read a low kon as slower complex formation. Usually IC50 stands for the concentration that gives 50% inhibition. Low values mean greater potency in that assay, high ones weaker potency in that assay.

Where “and” joins values, the source holds several entries; their conditions need not be identical. Equal entries are not always repeated. Bridge positions count the residues as written; N and C are the ends. Square brackets hold non-standard residues; d marks the D form. Ends that are not written are not given here. Phe(4-tBu) = CC(C)(C)c1ccc(C[C@H](N)C(=O)O)cc1; NMeR = CN[C@@H](CCCNC(=N)N)C(=O)O; β3hE = N[C@@H](CCC(=O)O)CC(=O)O; Pen = CC(C)(S)[C@H](N)C(=O)O Some results are limits rather than exact numbers.

For assay [1], the target named is T1, rh integrin α4β7 (R&D Systems #5397-A30) (human, UniProt P13612 34-970; P26010 20-723).
T1 construct: Bought recombinant heterodimer, coated on a nickel plate; also called immobilized α4β7; soluble α4β7 integrin
Kind of assay: SPR, biotin peptide on streptavidin chip, soluble α4β7. For orientation: In SPR one partner is held on a chip, and binding of the other changes the refractive index at the surface.

For assay [2], the target named is human α4β7 integrin on cells (human) (UniProt P13612). Kind of assay: FACS, human whole blood, 1 mM MnCl2; Basophils. In general terms: Flow cytometry measures light scatter and fluorescence of single cells or particles in a stream.
Assay [3] shares this target. The assay is described as follows: FACS, human whole blood, 1 mM MnCl2; Monocytes.
The target is the same in assay [4]. Kind of assay: FACS, human whole blood, 1 mM MnCl2; Eosinophils.
For assay [5] the target is unchanged. The assay is described as follows: FACS, human whole blood, 1 mM MnCl2; Neutrophils.
For assay [6] the target is unchanged. The assay is described as follows: FACS, human whole blood, 1 mM MnCl2; CD19+ B cells.
The target is the same in assay [7]. The assay is described as follows: FACS, human whole blood, 1 mM MnCl2; CD4 naïve T cells.
The target is the same in assay [8]. The assay is described as follows: FACS, human whole blood, 1 mM MnCl2; CD8 naïve T cells.
Assay [9] concerns the target rh integrin α4β7 (R&D Systems #5397-A30) (human) (UniProt P13612). The assay is described as follows: SPR, biotin antibody on streptavidin chip, soluble α4β7.
Assay [10] addresses human α4β7 integrin on cells (human) (UniProt P13612). The assay is described as follows: FACS, human whole blood, 1 mM MnCl2; CD4 memory T cells.
Assay [11] has the same target. Kind of assay: FACS, human whole blood, 1 mM MnCl2; CD8 memory T cells.
Assay [12] shares this target. Kind of assay: FACS, human whole blood, 1 mM MnCl2; NK cells CD16+ 56+.
For assay [13], the target named is T1, rh integrin α4β7 (R&D Systems #5397-A30). Kind of assay: competition ELISA vs MAdCAM-1. A general note: An ELISA detects its analyte on a solid surface through an enzyme-linked reagent.

B1: Peptide X-biotin (peptide)
peptide: Ac-[Pen][NMeR]SDTL[Pen][Phe(4-tBu)][β3hE][dK]
modifications: disulfide 1-7 (inferred); also: biotin attached via PEG linker, site not given here, dimer of two subunits joined by DIG linker, as Peptide X
For B1, in [1], the half-life for dissociation is 11.1 h and ~11 h.

B2: Vedolizumab-biotin (antibody, INN chains, looked up, V domains shown)
VH: QVQLVQSGAEVKKPGASVKVSCKGSGYTFTSYWMHWVRQAPGQRLEWIGEIDPSESNTNYNQKFKGRVTLTVDISASTAYMELSSLRSEDTAVYYCARGGYDGWDYAIDYWGQGTLVTVSS
VL: DVVMTQSPLSLPVTPGEPASISCRSSQSLAKSYGNTYLSWYLQKPGQSPQLLIYGISNRFSGVPDRFSGSGSGTDFTLKISRVEAEDVGVYYCLQGTHQPYTFGQGTKVEIKR
modifications: biotin label
For the molecule B2, the Percent positive staining in assay [2] stood at 86%; in assay [3] it was 7%; in [4], 91%; in assay [5] it was 0.45%; in assay [6] it was 85%; in [7] it was 55%. Also, the Percent positive staining in assay [8] was 53%; in [10], 22%; in assay [11], 36%; in assay [12] it was 42%. The Half-life for dissociation in assay [9] was found to be 0.717 h. The Kd in assay [9] amounted to 59.5 nM. In addition, in [9], the koff amounted to 0.000266 s⁻¹. For the same molecule, the kon in [9] was found to be 4470 M⁻¹ s⁻¹.

On to Ac-[Pen][NMeR]S[Prop acid]TL[Pen]WE[dK]-NH2 (disulfide 1-7) [SEQ ID NO: 47], for which the IC50 in assay [13] was over 1000 nM.
